From the supplement of paper PMC9170038

How the values were obtained:
[1] = test system: MS2 coat protein; test: apparent KD of MS2 coat protein, switch ON state; designed switch direction (-1 OFF switch, 1 ON switch): -1; higher = weaker reporter binding; details: FMN input: 0 or 200 uM; Eterna round: R93 (includes R88 designs)
Summary of the method: (§1)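 Values are apparent KD, taken as the median for each design of fits to normalised binding curves from individual clusters. The designed RNA switches were transcribed on-chip from Illumina sequencing clusters and exposed to SNAP-549-labelled MS2 coat protein at twofold increasing amounts from 0.7 or 1.5 nM to 3 µM. Titration used 100 mM Tris-HCl pH 7.5, 80 mM KCl and 4 mM MgCl2, without or with constant ligand.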

[2] = test system: MS2 coat protein; test: apparent KD of MS2 coat protein, switch OFF state (with FMN for OFF switches, without FMN for ON switches); designed switch direction (-1 OFF switch, 1 ON switch): -1; higher = weaker reporter binding; details: FMN input: 0 or 200 uM; Eterna round: R93 (includes R88 designs)
Summary of the method: as §1

Sequence | apparent KD of MS2 coat protein [1] [nM] | apparent KD of MS2 coat protein [2] [nM]
AAAAAGUCAGGAUAUGUCAAAGGUCACGAAAGUGACAAAGGACAGAAGGGACAUGAGGAUCACCCAUGUAAAAA [Fiskers Exclusion 4 D1] | 53.5 | 49.5
AAAAAGUGAGGAUAUGCAGUGGCCUGUAGACGCGAGCACUUGUAGAAGGCACAUGAGGAUCACCCAUGUUUAAA [EX4 Malc#29] | 21.3 | 20.5
AAAAAGUGAGGAUAUGCGCUGUCAUGUAGACACGAGCAGUCGUAGAAGGCACAUGAGGAUCACCCAUGUUUAAA [EX4 Malc#24] | 31.9 | 20
AAAAAGUGAGGAUAUGGAAAAAAAAAAAAAAAAAAAAAAAACCAGAAGGCACAUGAGGAUCACCCAUGUAAAAA [exclusive 2] | 38.6 | 30.9
AAAAAGUGAGGAUAUGGAAAAAAAAAAAAAAAAAAAAAAAACCAGAAGGCACAUGAGGAUCACCCAUGUAAAAA [low kcal] | 38.6 | 30.9
AAAAAGUGAGGAUAUGUCAAAGGUCACGAAAGUGACAAAGGACAGAAGGCACAUGAGGAUCACCCAUGUGGGAA [Fiskers Exclusion 4D1 65% - Early + late G segment 1] | 67.4 | 77.6
AAAAAGUGAGGAUAUUCGGAUAGGAAAACGAAAACCUAUCCGAAGAAGGCACAUGAGGAUCACCCAUGUGAAAG [Mat - Exaclusion 4 - Eli mod - D42] | 28 | 29.4
AAAAAUCGAGGAUAUACAUGAGGAUCACCCAUGUUGGAAAACGAUUACACAAAAGAAAGUAGAAGGCGAUAAAA [Ex 3 May 21] | 16.5 | 24.7
AAAAAUGGAGGAUAUACAUGAGGAUCACCCAUGUGUAUAAAAAAAUACACAAAAGAAAGUAGAAGGCCAUAAAA [Ex 3 Ice] | 35 | 94.3
AAAAAUGGAGGAUAUACGUACAUGUCAAAAGACGUGAAGGGACAUGAGGAUCACCCAUGUAGAAGGCUAAAAAA [JL Stem Breaker 7] | 80.1 | 29.5
AAAAAUUGAGGAUAUACGAACAUGUCAAAAGACGUGAAGGGACAUGAGGAUCACCCAUGUAGAAGGCGAAAGAA [JL Loop Breaker 1] | 45.1 | 19.9
AAAACACAUGAGGAUCACCCAUGUUAGGAUAUCCACGCUACUAAUCCUAAACAAAGCGGGAGAAGGAACGUGGC [Xerereonan] | 20.9 | 17.5
AAAACGUGAGGAUAUGCACCAAAAAAGGUAAAUCGGGUACGACAUGAGGAUCACCCAUGUAGAAGGCACGAAAA [Frodo Flailing 11 - Jieux - Exclusion 2] | 28.2 | 42.9
AAAACGUGAGGAUAUGCACCAAAAAAGGUAAUUCGGGUACGACAUGAGGAUCACCCAUGUAGAAGGCACGAAAA [Frodo Flailing 12 - Jieux - Exclusion 2] | 29.9 | 28.7
AAAAGACAUGAGGAUCACCCAUGUAAGGAUAUGCAGAGAGCAAAACAAAAAAAAAAAAGCAGAAGGUACAUAAA [Design2] | 55.4 | 65.1
AAAAGACAUGAGGAUCACCCAUGUGAGGAUAUCGGAAAAGGAAAAAAAAAAAAGAAGACGAGAAGGCACACCAA | 42.5 | 33.8
AAAAGACAUGAGGAUCACCCAUGUGAGGAUAUGCAAAACCCAUAUAAAAAGGGAAAAAGCAGAAGGUACAAAAA [wbt round 1 mod 13] | 29.6 | 40.5
AAAAGCAAAGGAUAUACAUGAGGAUCACCCAUGUAAAAAAGAAAAGAGUAUAUGGCAUGUAGAAGGUUGCGUGG [Rabisoxe] | 26.2 | 54.9
AAAAGUACAGGAUAUACAUGAGGAUCACCCAUGUAGAAAGGAAGUGUAAAAAAAAAGUGUAGAAGGGUGCAUGA [MS2 Riboswitches On Chip Exclusion 3 wbt1] | 22.5 | 21.2
AAACCACAUGAGGAUCACCCAUGUCAGGAUAUGCAAACAACAAACAACAAACAACAAAGCAGAAGGGACAACAA [63%, Olong, 2] | 13.8 | 18

Sequence | apparent KD of MS2 coat protein [1] [nM] | apparent KD of MS2 coat protein [2] [nM]
AAACGUACAGGAUAUACGAAAAGAUUACGAAAGUAAUCGGGACAUGAGGAUCACCCAUGUAGAAGGGUACGAAA [Mod2 of Meechl 64% 4] | 48 | 61.7
AAACGUUGAGGAUAUACAGAAGGGUAUAAAUCAAAAAAAACACAUGAGGAUCACCCAUGUAGAAGGCAACGAAA | 98.9 | 50.4
AAAGGACAUGAGGAUCACCCAUGUGAGGAUAUCGGAAAAGGAAAAAUAAAAAAGAAGACGAGAAGGCACACCAA [Mat - Exclusion 1 - Eli mod - D76] | 80.6 | 59.8
AAAGGACGAGGAUAUACAUGAGGAUCACCCAUGUAAAAAACAUAGUAAAAGGGCUUGUGUAGAAGGCGUCCAAA [Meechl Ex3 2 R2 v10] | 173 | 35.6
AAAGGACGAGGAUAUACAUGAGGAUCACCCAUGUAAAAAGCAUAAUAAAAUAACUUAUGUAGAAGGCGUCCAAA [Mat - Exclusion 3 - Eli mod - D91] | 22 | 102
AAAGGACUAGGAUAUACAUGAGGAUCACCCAUGUAAAAAACAUAAUAAAAGAACUUAUGUAGAAGGAGUCCAAA [69%, Moding Meechl, 9] | 31.7 | 93.7
AAAGGGCGAGGAUAUACAUGAGGAUCACCCAUGUAAAAAACAUAAUAAAAGAACUUAUGUAGAAGGCGUCCAAA [Meechl Ex3 2 R2 v2] | 52.8 | 321
AAAGUGUGAGGAUAUGUCAAAGGACACGAAAGUGACAAAGGACAGAAGGUACAUGAGGAUCACCCAUGUAAAAA [milkweed 18] | 27.3 | 20.6
AAAUACUAAGGAUAUACAUGAGGAUCACCCAUGUACAAACCCGUGGAACGGAUCGUUAGUAGAAGGUGGACAAA [Zaanrion] | 15.6 | 15.4
AAAUCAGUAGGAUAUACGAUUUUAUGCUAGAUAGAGGAACCACAUGAGGAUCACCCAUGUAGAAGGACUAGAUA [EX2 Malc#24] | 14.5 | 16.4
AAAUGAUGAGGAUAUACAUGAGGAUCACCCAUGUGUAAAAAUAAAUACACAAAAGAAAGUAGAAGGCAUCAAAG [Mat - Exclusion 3 - Mayanna mod - D119] | 27.8 | 88.6
AAAUGCUGAGGAUAUACAUGAGGAUCACCCAUGUAAAAUAAAUAAAGGGUGUAAACGUGUAGAAGGCAGCAUAA [Exclusion 3.14e (FMN+ favored )] | 39.4 | 32.6
AACAAACAUGAGGAUCACCCAUGUCAGGAUAUCCGAAAUAAAGAAACAAUAAUAAUAAGGAGAAGGGACUAAAU [Ex1 sub 2] | 35.5 | 34.1
AACAAACAUGAGGAUCACCCAUGUCAGGAUAUGCAUAAAUAAAUAAAUAAAUAAAUAAGCAGAAGGGACACAAC [Amethyst 90] | 45.1 | 53.3
AACAAACAUGAGGAUCACCCAUGUGAGGAUAUCGGAUGUACAGCGCAAUUAGAAUUAACGAGAAGGCACACUUA [Ex1_Neo] | 22.7 | 22.6
AACAAGGCAGGAUAUACAUGAGGAUCACCCAUGUGAGAAUUAAGUGGCGUAACACAAAGUAGAAGGGCCAUGGA [Ruby 5] | 39.5 | 49.9
AACAAGUCAGGAUAUCCGAAAAGUAAAUAAGUAAAACAAAAGGAGAAGGGACAUGAGGAUCACCCAUGUAAAUA [JR_Exc004_Sub015] | 48.1 | 27.2
AACAAGUGAGGAUAUCGGAAAUGUAAAUAAGUUUCACAAAACGAGAAGGCACAUGAGGAUCACCCAUGUAAAUA [JR_Exc004_Sub013] | 32.1 | 25.6
AACAGAACAGGAUAUACAUGAGGAUCACCCAUGUCACAACAAAGCAGCGCAACACAAAGUAGAAGGGUUAUGGA [Ruby 14] | 31.8 | 40.9
AACAGGACAGGAUAUACAUGAGGAUCACCCAUGUGAGAAUUAAGUGGCGUACCACAAAGUAGAAGGGUCCUGGA [Mat - Exclusion 3 - JL mod - D40] | 44.5 | 216
